In this experiment the target is KillerRed. The experiment is described as follows: SEC.

In the case of KillerRed, the stoichiometry N is 2.

Source of the values: paper PMC3775092.
